The labels stand for the following.
B1: MTSP-1 protease domain F97L/F99L/C122S/Q175K/Q192V/D217M (enzyme)
chain: VVGGTDADEGEWPWQVSLHALGQGHICGASLISPNWLVSAAHCYIDDRGFRYSDPTQWTAFLGLHDQSQRSAPGVQERRLKRIISHPFFNDLTLDYDIALLELEKPAEYSSMVRPISLPDASHVFPAGKAIWVTGWGHTQYGGTGALILQKGEIRVINQTTCENLLPQKITPRMMCVGFLSGGVDSCVGDSGGPLSSVEADGRIFQAGVVSWGMGCAQRNKPGVYTRLPLFRDWIKENTGV
B2: MTSP-1 protease domain F97E/F99L/C122S/Q175H/Q192V/D217P (enzyme)
chain: VVGGTDADEGEWPWQVSLHALGQGHICGASLISPNWLVSAAHCYIDDRGFRYSDPTQWTAFLGLHDQSQRSAPGVQERRLKRIISHPFFNDETLDYDIALLELEKPAEYSSMVRPISLPDASHVFPAGKAIWVTGWGHTQYGGTGALILQKGEIRVINQTTCENLLPQHITPRMMCVGFLSGGVDSCVGDSGGPLSSVEADGRIFQAGVVSWGPGCAQRNKPGVYTRLPLFRDWIKENTGV
B3: MTSP-1 I41E/F99L/C122S/G151N/Q192T (enzyme)
chain: VVGGTDADEGEWPWQVSLHALGQGHECGASLISPNWLVSAAHCYIDDRGFRYSDPTQWTAFLGLHDQSQRSAPGVQERRLKRIISHPFFNDFTLDYDIALLELEKPAEYSSMVRPISLPDASHVFPAGKAIWVTGWGHTQYGGTNALILQKGEIRVINQTTCENLLPQQITPRMMCVGFLSGGVDSCTGDSGGPLSSVEADGRIFQAGVVSWGDGCAQRNKPGVYTRLPLFRDWIKENTGV
B4: MTSP-1 protease domain I41D/F99L/C122S/Q192T (enzyme)
chain: VVGGTDADEGEWPWQVSLHALGQGHDCGASLISPNWLVSAAHCYIDDRGFRYSDPTQWTAFLGLHDQSQRSAPGVQERRLKRIISHPFFNDFTLDYDIALLELEKPAEYSSMVRPISLPDASHVFPAGKAIWVTGWGHTQYGGTGALILQKGEIRVINQTTCENLLPQQITPRMMCVGFLSGGVDSCTGDSGGPLSSVEADGRIFQAGVVSWGDGCAQRNKPGVYTRLPLFRDWIKENTGV
B5: MTSP-1 protease domain Q38R/I41G/Y60gG/F99M/C122S/G151N/Q192R (enzyme)
chain: VVGGTDADEGEWPWQVSLHALGRGHGCGASLISPNWLVSAAHCYIDDRGFRGSDPTQWTAFLGLHDQSQRSAPGVQERRLKRIISHPFFNDFTMDYDIALLELEKPAEYSSMVRPISLPDASHVFPAGKAIWVTGWGHTQYGGTNALILQKGEIRVINQTTCENLLPQQITPRMMCVGFLSGGVDSCRGDSGGPLSSVEADGRIFQAGVVSWGDGCAQRNKPGVYTRLPLFRDWIKENTGV
B6: MTSP-1 protease domain Q38L/I41R/Y60gF/F99L/C122S/G151N/Q192A (enzyme)
chain: VVGGTDADEGEWPWQVSLHALGLGHRCGASLISPNWLVSAAHCYIDDRGFRFSDPTQWTAFLGLHDQSQRSAPGVQERRLKRIISHPFFNDFTLDYDIALLELEKPAEYSSMVRPISLPDASHVFPAGKAIWVTGWGHTQYGGTNALILQKGEIRVINQTTCENLLPQQITPRMMCVGFLSGGVDSCAGDSGGPLSSVEADGRIFQAGVVSWGDGCAQRNKPGVYTRLPLFRDWIKENTGV
B7: MTSP-1 protease domain I41D/F99L/C122S/G151N/Q192T (enzyme)
chain: VVGGTDADEGEWPWQVSLHALGQGHDCGASLISPNWLVSAAHCYIDDRGFRYSDPTQWTAFLGLHDQSQRSAPGVQERRLKRIISHPFFNDFTLDYDIALLELEKPAEYSSMVRPISLPDASHVFPAGKAIWVTGWGHTQYGGTNALILQKGEIRVINQTTCENLLPQQITPRMMCVGFLSGGVDSCTGDSGGPLSSVEADGRIFQAGVVSWGDGCAQRNKPGVYTRLPLFRDWIKENTGV
B8: MTSP-1 protease domain I41D/F99L/C122S/G151N/Q192T/D217A (enzyme)
chain: VVGGTDADEGEWPWQVSLHALGQGHDCGASLISPNWLVSAAHCYIDDRGFRYSDPTQWTAFLGLHDQSQRSAPGVQERRLKRIISHPFFNDFTLDYDIALLELEKPAEYSSMVRPISLPDASHVFPAGKAIWVTGWGHTQYGGTNALILQKGEIRVINQTTCENLLPQQITPRMMCVGFLSGGVDSCTGDSGGPLSSVEADGRIFQAGVVSWGAGCAQRNKPGVYTRLPLFRDWIKENTGV
B9: MTSP-1 protease domain I41D/F97T/F99L/C122S/G151N/Q192T (enzyme)
chain: VVGGTDADEGEWPWQVSLHALGQGHDCGASLISPNWLVSAAHCYIDDRGFRYSDPTQWTAFLGLHDQSQRSAPGVQERRLKRIISHPFFNDTTLDYDIALLELEKPAEYSSMVRPISLPDASHVFPAGKAIWVTGWGHTQYGGTNALILQKGEIRVINQTTCENLLPQQITPRMMCVGFLSGGVDSCTGDSGGPLSSVEADGRIFQAGVVSWGDGCAQRNKPGVYTRLPLFRDWIKENTGV
B10: MTSP-1 protease domain Q38S/I41S/Y60gW/F99L/C122S/G151D/Q192T (enzyme)
chain: VVGGTDADEGEWPWQVSLHALGSGHSCGASLISPNWLVSAAHCYIDDRGFRWSDPTQWTAFLGLHDQSQRSAPGVQERRLKRIISHPFFNDFTLDYDIALLELEKPAEYSSMVRPISLPDASHVFPAGKAIWVTGWGHTQYGGTDALILQKGEIRVINQTTCENLLPQQITPRMMCVGFLSGGVDSCTGDSGGPLSSVEADGRIFQAGVVSWGDGCAQRNKPGVYTRLPLFRDWIKENTGV
B11: MTSP-1 protease domain Q38K/I41G/Y60gG/F99L/C122S/G151N/Q192H (enzyme)
chain: VVGGTDADEGEWPWQVSLHALGKGHGCGASLISPNWLVSAAHCYIDDRGFRGSDPTQWTAFLGLHDQSQRSAPGVQERRLKRIISHPFFNDFTLDYDIALLELEKPAEYSSMVRPISLPDASHVFPAGKAIWVTGWGHTQYGGTNALILQKGEIRVINQTTCENLLPQQITPRMMCVGFLSGGVDSCHGDSGGPLSSVEADGRIFQAGVVSWGDGCAQRNKPGVYTRLPLFRDWIKENTGV
B12: MTSP-1 protease domain F97E/F99L/C122S/G151A/Q192V (enzyme)
chain: VVGGTDADEGEWPWQVSLHALGQGHICGASLISPNWLVSAAHCYIDDRGFRYSDPTQWTAFLGLHDQSQRSAPGVQERRLKRIISHPFFNDETLDYDIALLELEKPAEYSSMVRPISLPDASHVFPAGKAIWVTGWGHTQYGGTAALILQKGEIRVINQTTCENLLPQQITPRMMCVGFLSGGVDSCVGDSGGPLSSVEADGRIFQAGVVSWGDGCAQRNKPGVYTRLPLFRDWIKENTGV
B13: MTSP-1 protease domain Q38H/I41S/Y60gW/C122S/G151H/Q192A (enzyme)
chain: VVGGTDADEGEWPWQVSLHALGHGHSCGASLISPNWLVSAAHCYIDDRGFRWSDPTQWTAFLGLHDQSQRSAPGVQERRLKRIISHPFFNDFTFDYDIALLELEKPAEYSSMVRPISLPDASHVFPAGKAIWVTGWGHTQYGGTHALILQKGEIRVINQTTCENLLPQQITPRMMCVGFLSGGVDSCAGDSGGPLSSVEADGRIFQAGVVSWGDGCAQRNKPGVYTRLPLFRDWIKENTGV
B14: MTSP-1 protease domain I41D/F99L/C122S/Q175S/Q192T (enzyme)
chain: VVGGTDADEGEWPWQVSLHALGQGHDCGASLISPNWLVSAAHCYIDDRGFRYSDPTQWTAFLGLHDQSQRSAPGVQERRLKRIISHPFFNDFTLDYDIALLELEKPAEYSSMVRPISLPDASHVFPAGKAIWVTGWGHTQYGGTGALILQKGEIRVINQTTCENLLPQSITPRMMCVGFLSGGVDSCTGDSGGPLSSVEADGRIFQAGVVSWGDGCAQRNKPGVYTRLPLFRDWIKENTGV
B15: MTSP-1 protease domain Q38K/I41D/Y60gG/F99L/C122S/G151N (enzyme)
chain: VVGGTDADEGEWPWQVSLHALGKGHDCGASLISPNWLVSAAHCYIDDRGFRGSDPTQWTAFLGLHDQSQRSAPGVQERRLKRIISHPFFNDFTLDYDIALLELEKPAEYSSMVRPISLPDASHVFPAGKAIWVTGWGHTQYGGTNALILQKGEIRVINQTTCENLLPQQITPRMMCVGFLSGGVDSCQGDSGGPLSSVEADGRIFQAGVVSWGDGCAQRNKPGVYTRLPLFRDWIKENTGV
B16: MTSP-1 protease domain Q38K/I41G/Y60gW/F99L/C122S/G151N/Q192A (enzyme)
chain: VVGGTDADEGEWPWQVSLHALGKGHGCGASLISPNWLVSAAHCYIDDRGFRWSDPTQWTAFLGLHDQSQRSAPGVQERRLKRIISHPFFNDFTLDYDIALLELEKPAEYSSMVRPISLPDASHVFPAGKAIWVTGWGHTQYGGTNALILQKGEIRVINQTTCENLLPQQITPRMMCVGFLSGGVDSCAGDSGGPLSSVEADGRIFQAGVVSWGDGCAQRNKPGVYTRLPLFRDWIKENTGV
B17: MTSP-1 protease domain I41D/F99L/C122S/G151N/Q175S/Q192T (enzyme)
chain: VVGGTDADEGEWPWQVSLHALGQGHDCGASLISPNWLVSAAHCYIDDRGFRYSDPTQWTAFLGLHDQSQRSAPGVQERRLKRIISHPFFNDFTLDYDIALLELEKPAEYSSMVRPISLPDASHVFPAGKAIWVTGWGHTQYGGTNALILQKGEIRVINQTTCENLLPQSITPRMMCVGFLSGGVDSCTGDSGGPLSSVEADGRIFQAGVVSWGDGCAQRNKPGVYTRLPLFRDWIKENTGV
B18: MTSP-1 I41S/F99L/C122S/G151N/Q192V (enzyme)
chain: VVGGTDADEGEWPWQVSLHALGQGHSCGASLISPNWLVSAAHCYIDDRGFRYSDPTQWTAFLGLHDQSQRSAPGVQERRLKRIISHPFFNDFTLDYDIALLELEKPAEYSSMVRPISLPDASHVFPAGKAIWVTGWGHTQYGGTNALILQKGEIRVINQTTCENLLPQQITPRMMCVGFLSGGVDSCVGDSGGPLSSVEADGRIFQAGVVSWGDGCAQRNKPGVYTRLPLFRDWIKENTGV
B19: MTSP-1 protease domain Q38R/I41R/Y60gF/F99L/C122S/G151N/Q192G (enzyme)
chain: VVGGTDADEGEWPWQVSLHALGRGHRCGASLISPNWLVSAAHCYIDDRGFRFSDPTQWTAFLGLHDQSQRSAPGVQERRLKRIISHPFFNDFTLDYDIALLELEKPAEYSSMVRPISLPDASHVFPAGKAIWVTGWGHTQYGGTNALILQKGEIRVINQTTCENLLPQQITPRMMCVGFLSGGVDSCGGDSGGPLSSVEADGRIFQAGVVSWGDGCAQRNKPGVYTRLPLFRDWIKENTGV
B20: MTSP-1 protease domain F97R/ins97aI/T98P/C122S/Q175M/Q192V/D217I (enzyme)
chain: VVGGTDADEGEWPWQVSLHALGQGHICGASLISPNWLVSAAHCYIDDRGFRYSDPTQWTAFLGLHDQSQRSAPGVQERRLKRIISHPFFNDRIPFDYDIALLELEKPAEYSSMVRPISLPDASHVFPAGKAIWVTGWGHTQYGGTGALILQKGEIRVINQTTCENLLPQMITPRMMCVGFLSGGVDSCVGDSGGPLSSVEADGRIFQAGVVSWGIGCAQRNKPGVYTRLPLFRDWIKENTGV

Chain of plasma purified human complement protein C3 (human) (P01024 23-667, chain 1 of 2): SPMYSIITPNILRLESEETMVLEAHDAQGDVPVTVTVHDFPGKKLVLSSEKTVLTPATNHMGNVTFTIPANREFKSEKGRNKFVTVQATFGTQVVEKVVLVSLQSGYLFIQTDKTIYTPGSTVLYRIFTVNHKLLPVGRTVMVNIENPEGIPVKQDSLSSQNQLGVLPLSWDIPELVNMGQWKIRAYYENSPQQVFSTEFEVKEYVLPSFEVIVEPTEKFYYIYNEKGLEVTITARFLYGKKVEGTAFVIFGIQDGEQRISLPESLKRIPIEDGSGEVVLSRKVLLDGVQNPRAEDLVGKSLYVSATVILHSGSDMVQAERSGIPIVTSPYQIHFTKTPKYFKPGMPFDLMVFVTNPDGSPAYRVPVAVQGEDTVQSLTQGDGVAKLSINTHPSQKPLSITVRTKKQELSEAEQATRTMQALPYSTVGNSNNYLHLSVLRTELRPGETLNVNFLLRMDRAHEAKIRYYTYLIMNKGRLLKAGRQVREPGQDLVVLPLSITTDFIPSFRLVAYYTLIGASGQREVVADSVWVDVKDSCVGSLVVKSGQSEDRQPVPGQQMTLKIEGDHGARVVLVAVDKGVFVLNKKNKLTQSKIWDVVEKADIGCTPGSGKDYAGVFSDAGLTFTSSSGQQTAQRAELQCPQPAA
Chain of plasma purified human complement protein C3 (human) (P01024 672-1663, chain 2 of 2): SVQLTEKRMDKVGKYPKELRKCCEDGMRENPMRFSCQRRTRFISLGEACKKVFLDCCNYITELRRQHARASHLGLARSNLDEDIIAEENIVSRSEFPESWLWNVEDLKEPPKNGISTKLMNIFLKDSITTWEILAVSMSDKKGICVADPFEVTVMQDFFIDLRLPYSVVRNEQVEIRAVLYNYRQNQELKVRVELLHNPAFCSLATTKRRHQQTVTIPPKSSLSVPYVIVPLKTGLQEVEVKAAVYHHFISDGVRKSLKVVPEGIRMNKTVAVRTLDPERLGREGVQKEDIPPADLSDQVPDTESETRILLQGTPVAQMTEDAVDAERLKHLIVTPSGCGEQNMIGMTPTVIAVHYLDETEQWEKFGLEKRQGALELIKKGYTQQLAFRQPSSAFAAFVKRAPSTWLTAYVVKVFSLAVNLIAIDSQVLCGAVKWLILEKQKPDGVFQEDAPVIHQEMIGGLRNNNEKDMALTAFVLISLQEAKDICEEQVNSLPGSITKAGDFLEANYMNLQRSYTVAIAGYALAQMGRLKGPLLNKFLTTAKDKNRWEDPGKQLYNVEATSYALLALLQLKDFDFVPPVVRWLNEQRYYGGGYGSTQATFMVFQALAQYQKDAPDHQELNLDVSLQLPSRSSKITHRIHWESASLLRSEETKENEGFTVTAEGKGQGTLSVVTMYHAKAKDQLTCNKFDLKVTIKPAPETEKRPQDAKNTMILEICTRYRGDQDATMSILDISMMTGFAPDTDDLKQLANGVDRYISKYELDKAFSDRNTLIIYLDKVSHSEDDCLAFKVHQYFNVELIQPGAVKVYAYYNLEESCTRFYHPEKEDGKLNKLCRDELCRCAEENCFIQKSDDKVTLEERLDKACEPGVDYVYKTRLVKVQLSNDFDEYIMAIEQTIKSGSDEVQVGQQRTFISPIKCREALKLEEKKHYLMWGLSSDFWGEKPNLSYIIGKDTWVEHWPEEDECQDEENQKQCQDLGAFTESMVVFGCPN

This experiment concerns the target plasma purified human complement protein C3 (human) (UniProt P01024). Put plainly: cell-based or functional assay.
For B1, the EC50 hC3 cleavage was 463 nM.

B2: the EC50 hC3 cleavage amounted to 7770 nM.

With B3, the EC50 of hC3 cleavage is 124 nM.

Take B4: the EC50 hC3 cleavage came to 59.4 nM.

Molecule B5 displayed an EC50 hC3 cleavage of 147 nM.

The molecule B6 had an EC50 hC3 cleavage of 151 nM.

Turning to B7, the EC50 hC3 cleavage was 47 nM.

B8 had an EC50 hC3 cleavage of 45.1 nM.

B9 yielded an EC50 hC3 cleavage of 84.3 nM.

As for B10, the EC50 hC3 cleavage worked out at 15 nM.

Molecule B11 had an EC50 hC3 cleavage of 17.9 nM.

As for B12, the EC50 hC3 cleavage worked out at 1040 nM.

For B13, the EC50 hC3 cleavage came out at 8.96 nM.

Regarding B14, the EC50 hC3 cleavage stood at 27.4 nM.

For B15, the EC50 hC3 cleavage turned out to be 52.7 nM.

The molecule B16 had an EC50 hC3 cleavage of 9.96 nM.

On to B17, for which the EC50 hC3 cleavage turned out to be 28.6 nM.

Regarding B18, the EC50 of hC3 cleavage was determined as 34.4 nM.

In the case of B19, the EC50 hC3 cleavage was 197 nM.

On to B20, for which the EC50 hC3 cleavage amounted to 23.6 nM.

Values taken from US20240018502A1.
